Measurements: the supplement of paper PMC10567573
± gives the standard deviation.

Assay: protein stability index of a GFP-peptide fusion (GPS, HEK-293T) (PSI 1-6); higher = more stable
Conditions: c terminus: a fixed tail appended
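Also: 24-mer peptide tiles fused after GFP, lentivirally expressed, FACS-sorted into six equal bins by GFP/DsRed ratio, decoded by Illumina sequencing, PSI is the read-weighted mean bin number.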

Sequence | protein stability index (treatment: DMSO) | protein stability index (treatment: MLN4924 1 uM, 8 h)
IERLTREVEATRRALIDRMVNLHQ [DDIT3] | 2.45 ± 0.18 | 2.61 ± 0.24
IFMGYQNVEDEAETKKVLGLQDTI [PALM] | 3.27 ± 0.26 | 3.35 ± 0.3
IFNVAIPRFHMACPTFRVSIARLE [FBXO3] | 2.19 ± 0.57 | 2.2 ± 0.47
IHGLPTEGYQALYHAVVEPMLWNP [C22orf31] | 2.19 ± 0.11 | 2.13 ± 0.21
IIDNTNLHAWEMKPYAVMVFQTEQ [N4BP2L1] | 2.15 ± 0.25 | 2.09 ± 0.18
IILTNQSVREVTQIKCIELKSELG [P2RY14] | 2.14 ± 0.23 | 2.27 ± 0.19
IISAHIHPVCSLCWSRDGHKLVSA [RBBP5] | 2.45 ± 0.37 | 2.14 ± 0.24
IIWFSFELVVRFFACPSKTDFFKN [KCNA1] | 2.88 ± 0.37 | 3.04 ± 0.36
IKENAQDTMRQINKKGFWSYGPVI [TOR1AIP2] | 2.51 ± 0.45 | 2.52 ± 0.26
IKKPESFSKQIVLRGKSIKRAPGE [NEUROD6] | 3.9 ± 0.12 | 4 ± 0.22
IKPSENHYSLLTSQPLDREATSHY [PCDHGC5] | 3.87 ± 0.062 | 3.93 ± 0.38
ILENRPPGSLLCTVAASDPDTGDN [PCDHGC5] | 4.99 ± 0.12 | 5.06 ± 0.13
ILLQDHIRDLDVVVVSVAGAFRKG [ATL3] | 2.94 ± 0.34 | 2.57 ± 0.68
ILRSQLVTLLVRGVCYSESQSSAS [CLCN6] | 2.88 ± 0.38 | 2.95 ± 0.39
ILSLEGGYNLRALAEGVSASLHTL [HDAC6] | 2.15 ± 0.79 | 2.12 ± 0.39
ILTERVSLPFKPFAIILPILLNIR [MIA2] | 2.25 ± 0.55 | 3.79 ± 0.64
IPSEEWPNPPTLQEAGLSHTEVLF [FAF2] | 3.8 ± 0.23 | 3.81 ± 0.21
IQELELQAQIHGLPVPPTPGLLSL [TFE3] | 2.62 ± 0.22 | 2.56 ± 0.28
IQQTTRYFSTPQTMDLFLNYSMNM [NANOGP8] | 2.7 ± 0.48 | 2.58 ± 0.58
IRERATIEETYSKAMAKLSKLASN [FCHO1] | 3.02 ± 0.19 | 2.91 ± 0.3
IRKLVAEKLNIPWNHIRLQRTAKG [AASDHPPT] | 2.31 ± 0.27 | 2.44 ± 0.33
IRSMDPSALASDRFNLILADTNSD [DCAF4] | 4 ± 0.14 | 3.85 ± 0.11

Sequence | protein stability index (treatment: DMSO) | protein stability index (treatment: MLN4924 1 uM, 8 h)
IRVWFQNKRCKDKKKSILMKQLQQ [ISL2] | 2.08 ± 0.26 | 2.17 ± 0.23
ISDALIRRVHLTEDQWGKGTLTPR [TRIM9] | 2.92 ± 0.14 | 3.11 ± 0.41
ISDNSISWSAGLHNRYTENSLRGV [FUT8] | 2.87 ± 0.29 | 2.87 ± 0.15
ISHRSTVASCMHRQETVDCLKKFN [CAMK2A] | 3.23 ± 0.077 | 3.14 ± 0.11
ISLRVYRKVLQAVHRGDGANPFQA [RTN2] | 2.59 ± 0.46 | 2.2 ± 0.32
ISVLQQQGSLSNTYLSKVDPDGKK [FBXO33] | 4.45 ± 0.18 | 4.46 ± 0.2
ITAFYNEARARARANRGILQQERQ [DNAJC4] | 3.4 ± 0.5 | 3.81 ± 0.36
ITLSQEQIQKYTDCLQFYVNSTLK [RTN1] | 2.08 ± 0.1 | 2.1 ± 0.086
ITTKTADGKCAYRASYSDGKLKAP [MLH1] | 3.78 ± 0.2 | 3.67 ± 0.12
ITVAELREAVPALLGEPLAGPELD [CABP4] | 3.7 ± 0.39 | 3.84 ± 0.44
IVEKRVLAHLAPLFDNPKLDKELR [INTS3] | 2.13 ± 0.2 | 2.13 ± 0.37
IVRFLESNWFVWVTQMNHIPMHID [FADS1] | 3.08 ± 0.95 | 3.1 ± 1
IWAKTPPITRKAAQLYTLWVTFQV [DHCR7] | 3.3 ± 0.52 | 2.81 ± 0.6
IWFIVPISCVICNDIMAYMFGFFF [CDS2] | 3.19 ± 0.25 | 3.11 ± 0.61
IYPVWTYSYLVLLFPVFLATDYLR [SLC19A2] | 3.11 ± 0.53 | 3.29 ± 0.37
KAPVQNEAPALGGGEYQEPGGNVK [BEX5] | 5.48 ± 0.21 | 5.54 ± 0.26
KAVNDETCKASHITSSVFPSASLG [FBXO34] | 3.66 ± 0.2 | 3.61 ± 0.18
KCIFTQFRIILGDFDYNAIDNANR [PKD2L1] | 2.41 ± 0.32 | 2.52 ± 0.36
KCKQVKEKCKEEFVEEIKKLATQH [ZMYND11] | 4.12 ± 0.15 | 4.14 ± 0.23
KCQVGFSSSDLVMRARDSVYHIEC [ISL2] | 1.99 ± 0.36 | 2.3 ± 0.31
KCRDLSALMHELSNDGARRQFEFY [BTBD10] | 2.06 ± 0.3 | 2.23 ± 0.3
KEFQQVFIPECNDDGTYSQVQCHS [SMOC2] | 4.01 ± 0.36 | 4.38 ± 0.29

Sequence | protein stability index (treatment: DMSO) | protein stability index (treatment: MLN4924 1 uM, 8 h)
KEGRPGIPGLPGLRGLPGERGTPG [SCARA5] | 4.21 ± 0.41 | 4.43 ± 0.24
KENKDVIQKNKLKLTREQEELEEA [MNAT1] | 5.49 ± 0.29 | 5.37 ± 0.31
KEQDGREVDWEYFYGLLFTSENLK [DFFB] | 2.617 ± 0.019 | 2.93 ± 0.01
KEYPVVPRSTVRQKVASNHSPFSS [TBX5] | 3.61 ± 0.38 | 3.72 ± 0.32
KFPGQSSFLWQRGRKFLQKHLNAS [TOR1AIP2] | 2.47 ± 0.14 | 2.51 ± 0.22
KFRAKGRKPCKLMLQVVKILVVTV [MCOLN1] | 2.51 ± 0.39 | 2.16 ± 0.19
KFSYMWTINNFSFCREEMGEVLKS [SPOPL] | 2.34 ± 0.25 | 2.19 ± 0.42
KGELAPELGEEPQPRDEEEAELEL [POLD4] | 5.44 ± 0.23 | 5.69 ± 0.13
KGFSHLDVMLVECYDPKGDQWNIL [KLHL14] | 2.82 ± 0.6 | 2.9 ± 0.68
KHAKKEREESLPNLLQYVRMPLLT [KLHL12] | 3.26 ± 0.26 | 3.28 ± 0.16
KIGCGNFGELRLGKNLYTNEYVAI [CSNK1G1] | 2.51 ± 0.54 | 2.12 ± 0.59
KIKRLRSQVQVSLEDYINDRQYDS [HNF4A] | 3.23 ± 0.19 | 3.45 ± 0.15
KIKSEEIEITFSYWDGSGHRRTVK [FAM50A] | 2.27 ± 0.21 | 2.43 ± 0.16
KISKEEMVRRLKMVVKTFMDMDQD [PDS5B] | 2.26 ± 0.21 | 2.23 ± 0.25
KKEDTEKERDLRDVGDWRKNIEEK [TNNI2] | 5.38 ± 0.26 | 5.39 ± 0.21
KKLKIFAMPMQDIKMILKMVQLDS [PRAME] | 2.93 ± 0.58 | 2.75 ± 0.56
KKNNIKLYVRRVFIMDSCDELIPE [HSP90AB1] | – | 2.06 ± 0.65
KKRVSMILQSPAFCEELESMIQEQ [ADD1] | 3.58 ± 0.27 | 3.76 ± 0.43
KLTDKHETVVSYLPLSHIAAQMMD [ACSBG2] | 2.66 ± 0.4 | 2.98 ± 0.43
KNNICFMSHHQEELVPKQPQKRKP [SLC2A12] | 4.31 ± 0.14 | 4.64 ± 0.3
KNSDGMEAAGVQIQMVNESLGYVR [CD207] | 3.83 ± 0.28 | 4.08 ± 0.13
